Measurements reported in patent US20230212543.

Experiments:
[1] = target: Etanercept (native, fully glycosylated)
[2] = target: T1, TNFαR (the TNFα binding part of etanercept), P20333
T1 chain: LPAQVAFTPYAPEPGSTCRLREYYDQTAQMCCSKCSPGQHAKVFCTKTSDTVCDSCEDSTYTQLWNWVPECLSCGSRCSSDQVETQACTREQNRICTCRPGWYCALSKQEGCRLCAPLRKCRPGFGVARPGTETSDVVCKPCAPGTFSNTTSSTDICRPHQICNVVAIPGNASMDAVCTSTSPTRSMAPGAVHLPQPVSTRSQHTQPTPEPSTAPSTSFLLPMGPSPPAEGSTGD

[3] = target: Asialylated etanercept (etanercept treated with sialidase)

B1: LS (O-glycoprotein-specific endoprotease encoded by the Amuc1119 gene of Akkermansia muciniphila, with N-terminal Met and C-terminal GSG-His6) (protein)
chain: MEVTVPDALKDRIALKKTARQLNIVYFLGSDTEPVPDYERRLSELLLYLQQFYGKEMQRHGYGARSFGLDIKSPGRVNIIEYKAKNPAAHYPYENGGGWKAAQELDEFFKAHPDRKKSQHTLIIMPTWNDEKNGPDNPGGVPFYGMGRNCFALDYPAFDIKHLGQKTREGRLLTKWYGGMAHELGHGLNLPHNHQTASDGKKYGTALMGSGNYTFGTSPTFLTPASCALLDACEVFSVTPSQQFYEGKPEVEVGDVAISFKGDQILVSGNYKSPQTVKALNVYIQDPPYAVNQDYDAVSFSRRLGKKSGKFSMKIDKKELEGLNNNEFRISLMFILANGLHMQKHFTFHWDALQDYRDGSKSGSGHHHHHH
hydrolysis of substrate, SDS-PAGE [1]: full hydrolysis after overnight incubation | hydrolysis of substrate, SDS-PAGE [2]: LS had activity in all samples except those treated with O-glycosidase. | hydrolysis and release from double-mutant resin, SDS-PAGE (Asialylated Abatacept): could be hydrolyzed and eluted from the double-mutant-resin by LS in 6 h but had a slightly more complete elution after 24 h | hydrolysis and release from double-mutant resin, SDS-PAGE [3]: could be hydrolyzed and eluted from the double-mutant-resin by LS in 6 h but had a slightly more complete elution after 24 h | hydrolysis of substrate, SDS-PAGE [3]: LS was able to hydrolyze etanercept in the presence of sialidase
